According to patent publication US20220259289A1 (Janssen / Centocor, published 2022):
Positions count from the first letter of the chain named. Values belong to the binder of their own block, whether it stands above or below them.

What was measured:
Test in all cases: ELISA, bacterial lysate on plate-bound antigen, luminescence
[1] = molecular target: unrelated Fc-fused recombinant protein (negative control)
[2] = molecular target: T1, recombinant biotinylated human CD137 protein (Fc-fusion protein, R&D Systems 838-4B) (human, UniProt Q07011 24-186, biotinylated (site not stated))
T1 construct: Bought Fc fusion; The ELISA used the same antigen as the panning; also called CD137-Fc; biotinylated CD137; not shown: Fc part of the bought fusion protein
Experimental: (§1) Streptavidin-coated Maxisorp plates (Nunc catalog 436110) were blocked for 1 h in Starting Block T20 (Pierce) and then coated with biotinylated CD137 (using same antigen as in panning) or negative controls (an unrelated Fc-fused recombinant protein and human serum albumin) for 1 h. Plates were rinsed with TBST and diluted lysate was applied to plates for 1 h. Following additional rinses, wells were treated with HRP-conjugated anti-Centyrin antibody (PAB25) for 1 h and then assayed with POD (Roche catalog 11582950001).

human serum albumin = molecular target: T2, human serum albumin (human, UniProt P02768 25-609)
T2 construct: Negative control antigen of the screening ELISA; also called HSA
Experimental: as §1

T2 sequence (P02768 25-609 limits assumed): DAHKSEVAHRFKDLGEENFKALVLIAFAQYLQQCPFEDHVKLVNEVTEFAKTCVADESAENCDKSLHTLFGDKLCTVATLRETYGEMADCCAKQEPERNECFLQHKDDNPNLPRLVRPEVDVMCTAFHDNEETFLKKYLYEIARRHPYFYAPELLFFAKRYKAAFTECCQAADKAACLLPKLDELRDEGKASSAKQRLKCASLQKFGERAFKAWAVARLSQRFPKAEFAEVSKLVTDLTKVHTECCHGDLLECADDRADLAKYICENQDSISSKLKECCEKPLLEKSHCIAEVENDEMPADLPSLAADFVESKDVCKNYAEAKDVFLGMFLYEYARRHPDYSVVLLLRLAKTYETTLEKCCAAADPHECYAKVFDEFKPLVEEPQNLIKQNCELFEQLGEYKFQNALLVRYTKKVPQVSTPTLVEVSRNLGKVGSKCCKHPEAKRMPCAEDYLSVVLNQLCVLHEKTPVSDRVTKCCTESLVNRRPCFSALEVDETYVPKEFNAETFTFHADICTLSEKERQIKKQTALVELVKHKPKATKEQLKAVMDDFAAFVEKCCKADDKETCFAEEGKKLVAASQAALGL

B1: ISOP120GR5P1A11 (designed binder, not shown: small tags and cut ends)
chain: LPAPKNLVVSRVTEDSARLSWTAPDAAFDSFGIPYWEWTTEGEAIQLIVPGSERSYDLTGLKPATEYHVHIVGVKGGSFSEPLPADFTT
notes: FN3 domain (Centyrin); tested as E. coli lysate
- ELISA Fc Control (RLU) [1]: 480 RLU
- ELISA CD137-Fc (RLU) [2]: 1.05e+06 RLU
- ELISA HSA (RLU) (human serum albumin): 320 RLU

B2: ISOP120GR5P1A10 (designed binder, not shown: small tags and cut ends)
chain: LPAPKNLVVSRVTEDSARLSWTAPDAAFDSFEIPYIEVETIGEAIWLHVPGSERSYDLTGLKPGTEYSVGINGVKGGHTSNPLSARFTT
notes: as for B1
- ELISA Fc Control (RLU) [1]: 400 RLU
- ELISA CD137-Fc (RLU) [2]: 627000 RLU
- ELISA HSA (RLU) (human serum albumin): 400 RLU

B3: ISOP120GR5P1C10 (designed binder, not shown: small tags and cut ends)
chain: B2 chain with A26G
notes: as for B1
- ELISA Fc Control (RLU) [1]: 240 RLU
- ELISA CD137-Fc (RLU) [2]: 502000 RLU
- ELISA HSA (RLU) (human serum albumin): 480 RLU

B4: ISOP120HR5P1A6 (designed binder, not shown: small tags and cut ends)
chain: LPAPKNLVVSRVTEDSARLSWTAPDGAFDSFEIYYLEGGRGEAIVLTVPGSERSYDLTGLKPGTEYLVTIYGIKCGWASNPLSAIFTT
notes: as for B1
- ELISA Fc Control (RLU) [1]: 640 RLU
- ELISA CD137-Fc (RLU) [2]: 1.29e+06 RLU
- ELISA HSA (RLU) (human serum albumin): 400 RLU

B6: ISOP120AR5P1D2 (designed binder, not shown: small tags and cut ends)
chain: LPAPKNLVVSRVTEDSARLSWDFAYFKFDSFLIQYQESEKVGEAIVLTVPGSERSYDLTGLKPGTEYTVSIYGVGRFYTVYYSNPLSAIFTT
notes: as for B1
- ELISA Fc Control (RLU) [1]: 640 RLU
- ELISA CD137-Fc (RLU) [2]: 908000 RLU
- ELISA HSA (RLU) (human serum albumin): 640 RLU

B9: ISOP120FR5P1A6 (designed binder, not shown: small tags and cut ends)
chain: LPAPKNLVVSRVTEDSARLSWTAPDAAFDSFIIRYLEDISYGEAIVLTVPGSERSYDLTGLKPGTEYHVGIEGVKGGNVSFPLSAIFTT
notes: as for B1
- ELISA Fc Control (RLU) [1]: 400 RLU
- ELISA CD137-Fc (RLU) [2]: 1.4e+06 RLU
- ELISA HSA (RLU) (human serum albumin): 320 RLU

B10: ISOP120ER5P1H4 (designed binder, not shown: small tags and cut ends)
chain: B9 chain with I32N, R34M, I39V, S40Q, Y41C, E72N, N78L, V79R
notes: as for B1
- ELISA Fc Control (RLU) [1]: 480 RLU
- ELISA CD137-Fc (RLU) [2]: 1.07e+06 RLU
- ELISA HSA (RLU) (human serum albumin): 560 RLU

B13: ISOP120GR5P1H11 (designed binder, not shown: small tags and cut ends)
chain: LPAPKNLVVSRVTEDSARLSWTAPDAAFDSFYIAYWEYWGNGEAIGLIVPGSERSYDLTGLKPGTEYHVHIVGVKGGAGSVPLWANFTT
notes: as for B1
- ELISA Fc Control (RLU) [1]: 640 RLU
- ELISA CD137-Fc (RLU) [2]: 1.31e+06 RLU
- ELISA HSA (RLU) (human serum albumin): 320 RLU

B15: ISOP120AR5P1G7 (designed binder, not shown: small tags and cut ends)
chain: LPAPKNLVVSRVTEDSARLSWSQHYLSPIPFDSFLIQYQESEKVGEAIVLTVPGSERSYDLTGLKPGTEYTVSIYGVGRHYTVYDSNPLSAIFTT
notes: as for B1
- ELISA Fc Control (RLU) [1]: 560 RLU
- ELISA CD137-Fc (RLU) [2]: 568000 RLU
- ELISA HSA (RLU) (human serum albumin): 480 RLU

B16: ISOP120AR5P1H3 (designed binder, not shown: small tags and cut ends)
chain: B15 chain with S22K, Q23W, H24I, Y25S, L26H, S27E, I29L, P30E
notes: as for B1
- ELISA Fc Control (RLU) [1]: 400 RLU
- ELISA CD137-Fc (RLU) [2]: 769000 RLU
- ELISA HSA (RLU) (human serum albumin): 480 RLU

B17: ISOP120HR5P1H7 (designed binder, not shown: small tags and cut ends)
chain: LPAPKNLVVSRVTEDSARLSWTAPDAAFDSFDIYYGEPGNLGEAIVLTVPGSERSYDLTGLKPGTEYLVTIYGVKGGDYSSPLSAIFTT
notes: as for B1
- ELISA Fc Control (RLU) [1]: 640 RLU
- ELISA CD137-Fc (RLU) [2]: 1.53e+06 RLU
- ELISA HSA (RLU) (human serum albumin): 480 RLU

B18: ISOP120FR5P1A11 (designed binder, not shown: small tags and cut ends)
chain: B17 chain with D32T, G36F, P38N, G39E, L41G, D78H, Y79W, S81R
notes: as for B1
- ELISA Fc Control (RLU) [1]: 480 RLU
- ELISA CD137-Fc (RLU) [2]: 920000 RLU
- ELISA HSA (RLU) (human serum albumin): 480 RLU

Continued, values first:

- ELISA Fc Control (RLU) [1]: 320 RLU
- ELISA CD137-Fc (RLU) [2]: 875000 RLU
- ELISA HSA (RLU) (human serum albumin): 160 RLU
B5: ISOP120GR5P1B11 (designed binder, not shown: small tags and cut ends)
chain: LPAPKNLVVSRVTEDSARLSWTAPDAAFDSFNIKYWEANLYGEAIVLTVPGSERSYGLTGLKPGTEYRVHIRGVKGGINSFPLVAVFTT
notes: as for B1

- ELISA Fc Control (RLU) [1]: 320 RLU
- ELISA CD137-Fc (RLU) [2]: 425000 RLU
- ELISA HSA (RLU) (human serum albumin): 160 RLU
B7: ISOP120AR5P1C5 (designed binder, not shown: small tags and cut ends)
chain: B6 chain with D22T, F23L, A24P, Y25N, F26I, K27H, F77H, Y82D
notes: as for B1

- ELISA Fc Control (RLU) [1]: 320 RLU
- ELISA CD137-Fc (RLU) [2]: 708000 RLU
- ELISA HSA (RLU) (human serum albumin): 240 RLU
B8: ISOP120AR5P1C4 (designed binder, not shown: small tags and cut ends)
chain: B6 chain with D22A, A24Q, Y25W, F26H, K27I, R76Q, F77P, Y82D
notes: as for B1

- ELISA Fc Control (RLU) [1]: 320 RLU
- ELISA CD137-Fc (RLU) [2]: 357000 RLU
- ELISA HSA (RLU) (human serum albumin): 320 RLU
B11: ISOP120FR5P1H6 (designed binder, not shown: small tags and cut ends)
chain: B9 chain with I32G, R34P, S40E, Y41V, T59A, E72Y, N78E, V79Q
notes: as for B1

- ELISA Fc Control (RLU) [1]: 240 RLU
- ELISA CD137-Fc (RLU) [2]: 413000 RLU
- ELISA HSA (RLU) (human serum albumin): 320 RLU
B12: ISOP120ER5P1E5 (designed binder, not shown: small tags and cut ends)
chain: B9 chain with I32R, R34S, I39V, S40Y, E72H, N78I, V79D
notes: as for B1

- ELISA Fc Control (RLU) [1]: 400 RLU
- ELISA CD137-Fc (RLU) [2]: 501000 RLU
- ELISA HSA (RLU) (human serum albumin): 320 RLU
B14: ISOP120AR5P1B5 (designed binder, not shown: small tags and cut ends)
chain: LPAPKNLVVSRVTEDYARLSWKYGEHIIWFDSFLIQYQESEKVGEAIVLTVPGSERSYDLTGLKPGTEYTVSIYGVKGQHDHDSNPLSAIFTT
notes: as for B1
